Test results as given in PMC8004985, “Affinity Purification of Angiotensin Converting Enzyme Inhibitory Peptides from Wakame (Undaria Pinnatifida) Using Immobilized ACE on Magnetic Metal Organic Frameworks” (Marine Drugs, 2021).

Assays:
[1] = Enzyme characterisation of free and immobilized ACE (optimum pH, temperature, Ea, Km, Vmax); type: biochemical, pig
Method: (§1) The ACE was prepared from pig lung and the precipitates were dialyzed and used as a crude enzyme sample for the immobilization of ACE [6]. Twenty-five milligrams of Fe3O4@ZIF-90 nanoparticles were dispersed in 2 mL of crude sample, and incubated with shaking for a certain time at different temperatures to immobilize the ACE. The immobilized ACE (Fe3O4@ZIF-90-ACE) was magnetically recovered and the precipitate was washed several times by 0.1 M phosphate (PBS) buffer until the supernatant was free of protein. Immobilized ACE was quantified using the Bradford method, which used bovine serum albumin (BSA) as the standard. Finally, the obtained immobilized ACE was stored at −80 °C. Enzyme loading capacity was calculated using Equation (1):(1) Enzyme loading capacity(mg⋅g^−1)=(Total protein content-supernatant protein content) /Total mass of Fe3O4@ZIF-90
(§2) ACE activity was evaluated by measuring the amount of hippuric acid (HA). The assay mixture (0.3 mL) consisted of 130 µL BBS buffer pH 8.3 ([…], containing 0.3 M NaCl), 40 µL HHL (5 mM), and different amounts of the free and immobilized ACE. Incubation was carried out at 37 °C for 10 min and was terminated by addition of HCl (0.1 mL, 1 M). The HA content of the mixture was determined by RP-HPLC (Agilent 1260) at 228 nm with a DAD detector. One unit of ACE enzyme activity (U) was defined as the amount of enzyme catalyzing HHL to generate 1 µM of HA per minute under the experimental conditions.

[2] = Enzymatic stability and reusability of free and immobilized ACE; type: biochemical, pig
Method: as §1
To determine thermal stability, the immobilized ACE was dispersed in PBS buffer in the absence of the HHL substrate at 20–60 °C for 1 h. […]
The storage stability of immobilized ACE was determined by storing at −20 °C for 30 days. The enzyme activity was then measured, and the relative activity was compared with that of the untreated ACE. The immobilized ACE was evaluated over six successive cycles to investigate the reusability stability; the first-time detection activity was considered as 100%.
as §2

[3] = HHL substrate, Table S2, Lineweaver-Burk

Ea (activation energy) ([1]; Arrhenius equation, Fig. S5 (c)): 8.535 kcal/mol
B1: free ACE: free angiotensin-I-converting enzyme (protein, UniProt P12821 30-1306, looked up)
Angiotensin-converting enzyme: LDPGLQPGNFSADEAGAQLFAQSYNSSAEQVLFQSVAASWAHDTNITAENARRQEEAALLSQEFAEAWGQKAKELYEPIWQNFTDPQLRRIIGAVRTLGSANLPLAKRQQYNALLSNMSRIYSTAKVCLPNKTATCWSLDPDLTNILASSRSYAMLLFAWEGWHNAAGIPLKPLYEDFTALSNEAYKQDGFTDTGAYWRSWYNSPTFEDDLEHLYQQLEPLYLNLHAFVRRALHRRYGDRYINLRGPIPAHLLGDMWAQSWENIYDMVVPFPDKPNLDVTSTMLQQGWNATHMFRVAEEFFTSLELSPMPPEFWEGSMLEKPADGREVVCHASAWDFYNRKDFRIKQCTRVTMDQLSTVHHEMGHIQYYLQYKDLPVSLRRGANPGFHEAIGDVLALSVSTPEHLHKIGLLDRVTNDTESDINYLLKMALEKIAFLPFGYLVDQWRWGVFSGRTPPSRYNFDWWYLRTKYQGICPPVTRNETHFDAGAKFHVPNVTPYIRYFVSFVLQFQFHEALCKEAGYEGPLHQCDIYRSTKAGAKLRKVLQAGSSRPWQEVLKDMVGLDALDAQPLLKYFQPVTQWLQEQNQQNGEVLGWPEYQWHPPLPDNYPEGIDLVTDEAEASKFVEEYDRTSQVVWNEYAEANWNYNTNITTETSKILLQKNMQIANHTLKYGTQARKFDVNQLQNTTIKRIIKKVQDLERAALPAQELEEYNKILLDMETTYSVATVCHPNGSCLQLEPDLTNVMATSRKYEDLLWAWEGWRDKAGRAILQFYPKYVELINQAARLNGYVDAGDSWRSMYETPSLEQDLERLFQELQPLYLNLHAYVRRALHRHYGAQHINLEGPIPAHLLGNMWAQTWSNIYDLVVPFPSAPSMDTTEAMLKQGWTPRRMFKEADDFFTSLGLLPVPPEFWNKSMLEKPTDGREVVCHASAWDFYNGKDFRIKQCTTVNLEDLVVAHHEMGHIQYFMQYKDLPVALREGANPGFHEAIGDVLALSVSTPKHLHSLNLLSSEGGSDEHDINFLMKMALDKIAFIPFSYLVDQWRWRVFDGSITKENYNQEWWSLRLKYQGLCPPVPRTQGDFDPGAKFHIPSSVPYIRYFVSFIIQFQFHEALCQAAGHTGPLHKCDIYQSKEAGQRLATAMKLGFSRPWPEAMQLITGQPNMSASAMLSYFKPLLDWLRTENELHGEKLGWPQYNWTPNSARSEGPLPDSGRVSFLGLDLDAQQARVGQWLLLFLGIALLVATLGLSQRLFSIRHRSLHRHSHGPQFGSEVELRHS
loss of relative activity between 35°C and 50°C ([1]; 35°C to 50°C): > 40%
Optimum pH ([1]; Fig. S5 (a)): 8.3
optimum temperature ([1]; Fig. S5 (b)): 40 °C
Km [1, 3]: 1960 µM
Vmax [1, 3]: 46.296 mmol/min
catalytic efficiency ([1]; Table S2): 23.596
activity lost on storage ([2]; 30 days, −20 °C): 45.04%
residual activity (thermal stability) ([2]; after heating at 60 °C for 1 h, PBS buffer, absence of HHL): 22.03%
relative activity (pH stability) ([2]; pH 5.0–10.0 (method: pH 5.0–9.0), 1 h): 37.05%
